Source: US20160096891A1 (AstraZeneca / MedImmune, published 2016)

T1: human B7-H5 expressed on cells (CHO transfectants) (UniProt Q9UM44 23-414)
T1 chain: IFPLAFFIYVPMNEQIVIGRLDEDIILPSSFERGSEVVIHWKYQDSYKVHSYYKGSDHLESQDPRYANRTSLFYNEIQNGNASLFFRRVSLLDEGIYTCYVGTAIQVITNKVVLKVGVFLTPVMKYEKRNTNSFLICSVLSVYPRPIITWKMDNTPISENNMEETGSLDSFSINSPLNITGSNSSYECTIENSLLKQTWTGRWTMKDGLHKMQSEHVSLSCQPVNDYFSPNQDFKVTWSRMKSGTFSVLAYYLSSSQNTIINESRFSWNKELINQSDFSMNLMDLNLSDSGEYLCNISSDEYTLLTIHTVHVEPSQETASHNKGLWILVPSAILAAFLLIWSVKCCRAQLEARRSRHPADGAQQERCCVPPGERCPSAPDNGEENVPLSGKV

T2: human B7-H5 expressed on cells (CHO transfectants) (human, UniProt Q9UM44 23-414)
T2 construct: also called B7-H7; HHLA2
T2 sequence: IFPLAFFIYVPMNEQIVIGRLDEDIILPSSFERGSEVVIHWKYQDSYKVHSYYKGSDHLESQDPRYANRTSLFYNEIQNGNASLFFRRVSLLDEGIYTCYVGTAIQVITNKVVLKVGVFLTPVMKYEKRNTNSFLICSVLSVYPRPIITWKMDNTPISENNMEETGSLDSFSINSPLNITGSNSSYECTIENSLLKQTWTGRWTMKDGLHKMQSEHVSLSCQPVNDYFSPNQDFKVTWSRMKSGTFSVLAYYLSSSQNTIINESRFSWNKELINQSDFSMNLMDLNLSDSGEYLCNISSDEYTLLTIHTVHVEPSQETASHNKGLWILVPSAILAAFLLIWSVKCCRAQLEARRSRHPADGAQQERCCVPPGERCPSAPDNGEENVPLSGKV


Assays:
[1] = target: T1, human B7-H5 expressed on cells (CHO …); test: FACS binding to CHO cells
[2] = target: T2, human B7-H5 expressed on cells (CHO …); test: flow cytometry on CHO transfectants expressing human B7-H5
[3] = target: T2, human B7-H5 expressed on cells (CHO …); test: flow cytometry on CHO cells expressing human B7-H5 (figure legend)
Description: Human B7-H5 FL CHO transfectants were pre-incubated with control supernatant (Panel A) or recombinant chimeric 2D3 (Panel B) and 18C3 supernatants (Panel C), and subsequently stained with biotinylated CD28HhIg fusion protein.
The human B7-H5-binding antibodies of the present invention (antibodies 2D3 and 18C3) were recombinantly converted to a human IgG4P isotype from their native hamster isotype. CHO transfectants that express human B7-H5 were then incubated in the presence of the recombinant antibodies. […] FIG. 15 compares the affinities of antibodies 2D3 and 18C3 for binding to human B7-H5 as expressed on the surface of CHO cells.

Row | Kd [1] | binding result [2] | binding result [3] | Binder
1 | ~2.5 nM | binds | – | anti-human B7-H5 antibody 2D3 (hybridoma clone 2D3) (antibody, V domains shown, constant regions are not; also called Anti-Human B7-H5 Clone 2D3; 2D3 mAb) VH: QVQLQQSGAELVKPGASVKLSCKASGYTFTSHDINWVRQRPELGLEWIGWIFPGDGSTKFNEKFKGKATLTTDKSSSTAYIQLSRLTSEDSAVYFCARNSFYSMDYWGQGTSVTVSS VL: DIVMSQSPSSLAVSAGEKVTMSCKSSQSLLNSRTRKNQLAWYQQKPGQSPKLLIYWAFIRESGVPDRFTGSGSGTDFTLTISSVQAEDLAVYYCKQSYNLRTFGGGTKLEIK
2 | – | – | binds | recombinant anti-human B7-H5 chimeric antibody 2D3, human IgG4P isotype (antibody, V domains shown, also called recombinant chimeric 2D3; human IgG4P derivative of 2D3) VH: QVQLQQSGAELVKPGASVKLSCKASGYTFTSHDINWVRQRPELGLEWIGWIFPGDGSTKFNEKFKGKATLTTDKSSSTAYIQLSRLTSEDSAVYFCARNSFYSMDYWGQGTSVTVSS VL: DIVMSQSPSSLAVSAGEKVTMSCKSSQSLLNSRTRKNQLAWYQQKPGQSPKLLIYWAFIRESGVPDRFTGSGSGTDFTLTISSVQAEDLAVYYCKQSYNLRTFGGGTKLEIK
3 | – | – | binds | recombinant anti-human B7-H5 chimeric antibody 18C3, human IgG4P isotype (antibody, V domains shown, also called recombinant chimeric 18C3; human IgG4P derivative of 18C3) VH: QVQLQQSGAELVKPGASVKLSCKASGYTFTSHDINWVRQRPEQGLEWIGWIFPGDGSTKFNEKFKGKATLTTDKSSSTAYIQLSRLTSEDSAVYFCARNSFYSMDYWGQGTSVTVSS VL: DIVMSQSPSSLAVSAGEKVTMSCKSSQSLLNSRTRKNQLAWYQQKPGQSPKLLIYWASTRESGVPDRFTGSGSGTDFTLTISSVQAEDLAVYYCKQSYNLRTFGGGTKLEIK
4 | ~3.8 nM | binds | – | anti-human B7-H5 antibody 18C3 (hybridoma clone 18C3) (antibody, V domains shown, constant regions are not; also called Anti-Human B7-H5 Clone 18C3) VH: QVQLQQSGAELVKPGASVKLSCKASGYTFTSHDINWVRQRPEQGLEWIGWIFPGDGSTKFNEKFKGKATLTTDKSSSTAYIQLSRLTSEDSAVYFCARNSFYSMDYWGQGTSVTVSS VL: DIVMSQSPSSLAVSAGEKVTMSCKSSQSLLNSRTRKNQLAWYQQKPGQSPKLLIYWASTRESGVPDRFTGSGSGTDFTLTISSVQAEDLAVYYCKQSYNLRTFGGGTKLEIK
